Measurements from patent US11142588B2, “Polypeptides which bind C-X-C chemokine receptor type 4 (CXCR4) and methods of treating or reducing the risk of fibrosis and cancer” (AdAlta Limited, priority 2015, dated 2021).
Where a chain is given by its changes, count along the chain named. Values joined by “and” are separate entries in the source; they are usually repeats but may differ in a detail not shown here. Identical values can stand only once.

B1: AM3-466: affinity matured CXCR4 i-body, SEQ ID NO: 64 (protein)
chain: LQVDIVPSQGEISVGESKFFLCQVAGSGSHQRISWFSPNGEKLTPNQQRISVVWNDDSSSTLTIYNANIDDAGIYKCVVWRTGAYRHRALVLGEATVNVKIFQ
modifications: protein sequence encoding AM3-466
B2: AM4-352: affinity matured i-body, CDR1 SEQ ID NO: 97, CDR3 SEQ ID NO: 98 (protein)
chain: B1 chain with G28K, S29D, H30D, Q31I, W80Y, A84G, A89Y
B3: AM3-32: affinity matured i-body, CDR1 SEQ ID NO: 91, CDR3 SEQ ID NO: 92 (protein)
chain: B1 chain with H30G, Q31I, R32T, A84V
B4: AM4-203: affinity matured i-body, CDR1 SEQ ID NO: 101, CDR3 SEQ ID NO: 102 (protein)
chain: B1 chain with G28Y, S29G, H30D, Q31I, W80Y, A84G, Y85W, A89Y
B5: AM4-757: affinity matured i-body, CDR1 SEQ ID NO: 93, CDR3 SEQ ID NO: 94 (protein)
chain: B1 chain with G28K, H30A, Q31I, W80Y, A84S, A89Y
B6: AM4-613: affinity matured CXCR4 i-body, SEQ ID NO: 52 (protein)
chain: B1 chain with G28K, H30D, Q31V, A84G, A89Y
modifications: protein sequence encoding AM4-613
B7: AM4-239: affinity matured i-body, CDR1 SEQ ID NO: 89, CDR3 SEQ ID NO: 90 (protein)
chain: B1 chain with S27A, G28Y, H30D, Q31I, W80Y, A84G, A89Y
B8: AM3-182: affinity matured i-body, CDR1 SEQ ID NO: 99, CDR3 SEQ ID NO: 100 (protein)
chain: B1 chain with S27V, S29N, Q31I, T82A, A84G
B9: AM4-208: affinity matured i-body, CDR1 SEQ ID NO: 85, CDR3 SEQ ID NO: 86 (protein)
chain: B1 chain with G28K, H30E, Q31I, W80Y, A84G, A89Y
B10: AM4-661: affinity matured CXCR4 i-body, SEQ ID NO: 60 (protein)
chain: B1 chain with G28K, H30D, Q31F, W80Y, A84G, A89Y
modifications: protein sequence encoding AM4-661
B11: AM4-774: affinity matured i-body, CDR1 SEQ ID NO: 83, CDR3 SEQ ID NO: 84 (protein)
chain: B1 chain with G28K, H30V, Q31I, W80Y, A84G, A89Y
B12: ADCX-306: CXCR4 binding i-body, SEQ ID NO: 29 (protein)
chain: LQVDIVPSQGEISVGESKFFLCQVAGFQEWVNWFSPNGEKLTPNQQRISVVWNDDSSSTLTIYNANIDDAGIYKCVVTMPHTLNNLDVRTEATVNVKIFQ
modifications: protein sequence encoding ADCX306
B13: AM4-386: affinity matured i-body, CDR1 SEQ ID NO: 95, CDR3 SEQ ID NO: 96 (protein)
chain: LQVDIVPSQGEISVGESKFFLCQVAGITSEGHISWFSPNGEKLTPNQQRISVVWNDDSSSTLTIYNANIDDAGIYKCVVETTVFNEVMRLGNGAHVYEATVNVKIFQ
B14: ADCX-668: CXCR4 binding i-body, SEQ ID NO: 26 (protein)
chain: LQVDIVPSQGEISVGESKFFLCQVAGTIWYEQISWFTPNGEKLTPNQQRISVVWNDDSSSTLTIYNANIDDAGIYKCVVWTRPVTSSMHEATVNVKIFQ
modifications: protein sequence encoding ADCX-668
B15: ADCX-6: CXCR4 binding i-body, SEQ ID NO: 17 (protein)
chain: LQVDIVPSQGEISVGESKFFLCQVAGLTSLEGISWFSPNGEKLTPNQQRISVVWNDDSSSTLTIYNANIDDAGIYKCVVEDHPQYSKMEEATVNVKIFQ
modifications: protein sequence encoding ADCX-6

How the values were obtained:
[1] = Bleomycin mouse model of pulmonary fibrosis; assay type: in vivo
Text: The optimal dose of Bleomycin is 2 U/mouse and the optimal time for assessing fibrocyte recruitment was confirmed at day 4. At days 4 bronchoalvelolar lavage (BAL) fluids were collected for analysis of SDF-1 concentration. One half of the lung tissue was used to make single cell suspensions of the lung and the cells used for flow cytometry and assayed for CD45+, CXCR4+ and Collagen1+ (fibrocytes). The other half of the lung tissue was Sircol stained for the presence of collagen 1 and RNA will be tested for Col-1, Col-3 and SDF-1.
SDF-1, fibrocytes and collagen deposition were monitored at Day 4. Groups were dosed with the i-body just prior to administration with Bleomycin. One half of the lung tissue was minced and washed in PBS and used to make single cell suspensions of the lung with Collagenase A and dispase treatment. The cells were then used for flow cytometry and assayed for CD45+, CXCR4+ and Collagen1+ fibrocytes. […]

[2] = biological target: T1, human CXCR4 (CXCR4 positive lipoparticles) (Homo sapiens, UniProt P61073); assay: Biacore SPR kinetic binding to immobilised CXCR4 lipoparticles
T1 construct: purchased Integral Molecular LEV-101B
T1 sequence (P61073 whole entry): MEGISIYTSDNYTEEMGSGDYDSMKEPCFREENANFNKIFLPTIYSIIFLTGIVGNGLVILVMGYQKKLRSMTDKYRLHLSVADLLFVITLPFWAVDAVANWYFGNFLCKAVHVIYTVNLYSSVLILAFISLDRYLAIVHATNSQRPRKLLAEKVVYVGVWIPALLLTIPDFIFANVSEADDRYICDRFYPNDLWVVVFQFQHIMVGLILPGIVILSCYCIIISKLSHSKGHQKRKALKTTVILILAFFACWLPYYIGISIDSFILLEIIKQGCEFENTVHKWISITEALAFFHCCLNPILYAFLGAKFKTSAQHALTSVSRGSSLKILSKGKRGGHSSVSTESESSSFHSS
Procedure: (FIGS. 2A-2C, 5A-5C, 11A-11D, 17A-17B) Kinetic binding analysis of selected i-bodies with immobilized CXCR4 lipoparticles were performed at 25° C. using Biacore T200 instrument (GE Healthcare, Uppsala, Sweden). Streptavidin immobilization was performed in 1×HBS-P+ running buffer (10 mM HEPES, 150 mM NaCl, 0.05% [v/v] Tween-20). […] All binding experiments involving lipoparticles were performed with 1×HBS/BSA (10 mM HEPES, 150 mM NaCl, 1 mg/mL BSA) as instrument running buffer. […] In order to determine binding kinetics, serial dilutions (three-fold) of i-bodies diluted in 1×HBS/BSA were injected over immobilized lipoparticles with the association and dissociation phases monitored for 60 sec and 600 sec, respectively. A control measurement of the instrument running buffer (“zero-buffer” blank) solution was also included for double referencing purposes. Collected experimental data were processed using Scrubber software (www.biologic.com.au). Kinetic parameters (ka=association and kd=dissociation rate constants) and equilibrium dissociation constant (KD=kd/ka) were derived by fitting each set of experimental data to a Langmuir 1:1 binding model. All interaction measurements were performed in triplicate and the derived binding parameters reported as averaged values±standard deviation.

CXCR4 = CXCR4 (Homo sapiens, UniProt P61073); assay: β-arrestin BRET assay, antagonist mode with 100 nM SDF-1; assay type: cell-based; parameters: expressed in transfected cells; host or cells: HEK293FT; conditions: various concentrations
Sequence of CXCR4 (P61073 whole entry): as above
Text: (FIGS. 3A-3F and 14) BRET was used in this study to assess the real-time kinetic profiles resulting from any consequent increase in proximity, building upon the previously validated monitoring of GPCR/β-arrestin interactions utilizing BRET. BRET occurs between a complementary Renilla luciferase (Rluc) variant as donor and green fluorescent protein variant as acceptor. Upon Rluc-catalyzed oxidation of the coelenterazine substrate (such as coelenterazine h for first generation BRET (BRET) or EnduRen for extended BRET (eBRET), energy is transferred to the acceptor if within 10 nm, resulting in acceptor light emission peaking at a characteristic wavelength. BRET (3-arrestin assays were carried out as described previously (See, H. B., Seeber, R. M., Kocan, M., Eidne, K. A. and Pfleger, K. D. (2011) ‘Application of G protein-coupled receptor-heteromer identification technology to monitor beta-arrestin recruitment to G protein-coupled receptor heteromers’, Assay Drug Dev Technol, 9(1), 21-30, 10.1089/adt.2010.0336). CXCR4/Rluc8 cDNA constructs were generated from plasmids containing the respective receptor cDNA tagged with Rluc kindly provided by Aron Chakera (Oxford University, United Kingdom). The β-arrestin 2/Venus cDNA construct was prepared previously from pCS2-Venus kindly provided by Atsushi Miyawaki (RIKEN Brain Science Institute, Wako-city, Japan). BRET technology in cells transiently expressing CXCR4/Rluc8 and β-arrestin2/Venus in the presence of 100 nM SDF-1 agonist was evaluated in the presence of the CXCR4 agonist SDF-1/CXCL12 and the i-bodies. HEK293FT cells were maintained at 37° C., 5% CO2 in Complete Media (Dulbecco's modified Eagle's medium containing 0.3 mg/mL glutamine, 100 IU/mL penicillin, and […] streptomycin; Gibco) supplemented with 10% fetal calf serum (FCS) and […] Geneticin (Gibco). Transfections were carried out 24 h after seeding using Genejuice (Novagen) according to manufacturer's instructions. Cells were harvested with 0.05% Trypsin-EDTA (Gibco). HEK293FT cells were transfected using FuGene6 (Promega). 5 μM coelenterazine h (Promega) in HBSS was used as the luciferase substrate solution. Cells were harvested 24 h post-transfection in HEPES-buffered phenol red-free Complete Medium containing 5% FCS and added to a poly-L-lysine-coated white 96-well plate (Nunc). Dose-response curves were generated using BRET, with medium in the plate being replaced with PBS containing […] coelenterazine h (Molecular Probes) and assays carried out immediately. For these assays, 48 h post-transfection, the plate was incubated at […], 5% CO2 for 2 h with […] EnduRen (Promega) to ensure substrate equilibrium was reached. All BRET measurements were taken at 37° C. using the VICTOR Light plate reader with Wallac 1420 software (PerkinElmer). Filtered light emissions were sequentially measured at 400-475 and 520-540 nm. The BRET signal was calculated by subtracting the ratio of 520-540 nm emission over 400-475 nm emission for a vehicle-treated cell sample from the same ratio for a second aliquot of the same cells treated with agonist (in this instance in the presence of SDF-1 or CXCL12) and i-body (ADCX-99, ADCX-272, ACDX-6, ACDX-306, ADCX-668) at various concentrations. Data are mean±S.E.M. of four independent experiments carried out in duplicate.
Binding of the i-bodies to CXCR4 were examined in a β-Arrestin BRET assay as described in See, Heng B et al (2011) Assay and Drug Development Technologies 9(1):21-30. The i-bodes were examined at ten concentrations with and without 100 nM SDF-1 with the addition of ‘vehicle’ and ‘SDF-1+vehicle’ controls in order to characterise if the i-bodies are agonist or antagonists of CXCR4 activity.

[3] = CXCR4 expressed on lipoparticles (Table 4)
[4] = off-rate, CXCR4 expressed on lipoparticles (Table 3)

Row | Molecule | dissociation rate constant (kd) [2, 4] | other results
1 | Cc1ccc(=O)n(-c2ccccc2)c1 [Pirfenidone, reference compound] | – | recruitment of fibrocytes into the lungs ([1]; day 4, dose not given): able to block recruitment of fibrocytes; collagen content of the lung (Sircol) ([1]; positive controls, dose not stated): reduction in collagen
2 | B1 | 0.00784 | Ka [2, 3]: 465000 M⁻¹ s⁻¹ and 426000 M⁻¹ s⁻¹
3 | B2 | 0.0152 | –
4 | B3 | 0.0136 | –
5 | B4 | 0.01621 | –
6 | B5 | 0.01488 | –
7 | B6 | 0.01236 | Ka [2, 3]: 1.334e+06 M⁻¹ s⁻¹; dissociation rate constant (kd) [2, 3]: 10440 M⁻¹ s⁻¹
8 | B7 | 0.01356 | –
9 | B8 | 0.01562 | –
10 | B9 | 0.01283 | –
11 | B10 | 0.00955 | Ka [2, 3]: 966000 M⁻¹ s⁻¹ and 983000 M⁻¹ s⁻¹; dissociation rate constant (kd) [2, 3]: 9210 M⁻¹ s⁻¹ and 9500 M⁻¹ s⁻¹
12 | B11 | 0.0105 | –
13 | B12 | – | β-arrestin activity (CXCR4): some degree of inhibition
14 | B13 | 0.015 | –
15 | B14 | – | β-arrestin activity (CXCR4): some degree of inhibition
16 | B15 | – | β-arrestin activity (CXCR4): some degree of inhibition
